Measurements reported in paper PMC2685113.

Target: streptavidin (UniProt P22629 25-183)
Test: EMSA

Chain of streptavidin (P22629 25-183): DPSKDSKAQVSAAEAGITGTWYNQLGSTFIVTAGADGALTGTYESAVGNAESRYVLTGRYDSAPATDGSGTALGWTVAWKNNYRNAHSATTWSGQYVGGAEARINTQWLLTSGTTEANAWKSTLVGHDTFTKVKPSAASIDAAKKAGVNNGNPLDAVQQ

B1: S1-77 (structured_RNA)
RNA: GGGCCAUCGAUGCGGCCGCCGACCAGAAUCAUGCAAGUGCGUAAGAUAGUCGCGGGUCGGCGGCCGCAUCGAUGGCC
  binding result: binds
